Test: yeast display, Sf9 membrane polyspecificity reagent, FACS + sequencing; frameworks hold sequencing errors
Outline: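 Using colony PCR, genes from sorted yeast display clones were amplified, then sequenced on MiSeq at 2 × 250 and filtered by CDR length. The clones had been stained with 10% biotinylated, detergent-solubilized Sf9 membrane reagent for 1 hour at 4 °C and sorted by FACS into low and high (top ~1%) gates on anti-HA and streptavidin fluorescence. Polyreactivity labels come from the gate of origin.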

Row | Sequence | polyreactivity (PSR sort gate)
1 | QVQLVESGGGLVQAGGSLRLSCAASGITFYVNAMGWYRQAPGKERELVAGIDSGGSTYYADSVKGRFTISRDNAKNTVYLQMNSLKPEDTAVYYCAARGSDYIRWYVGGRYGYWGQGTQVTVSS | low polyreactivity
2 | QVQLVESGGGLVQAGGSLRLSCAASGFIFTRYAMGWYRPAPGKERELVAAISASGGSTYYADSVKGRFTISRDNAKNTVYLQMNSLKPEDTAVYYCAAGGSWFRYPPRMDYWGQGTQVTVSS | high polyreactivity
3 | QVQLVESGGGLVQAGGSLRLSCAASGFILGANAMGWYRQAPGKERELVAAIRSSDGTTYYADSVKGRFTISRDNAKNTVYLQMNSLKPEDTAVYYCAADWRLLYEYWGQGTQVTVSS | high polyreactivity
4 | QVQLVESGGGLVQAGGSLRLSCAASGRIFNTYAMGWYRQAPGKERELVAAITSSGGSTYYADSVKGRFTISRDNAKNTVYFQMNSLKPEDTAVYYCNAGSLHRRYYYEGDYWGQGTQVTVSS | high polyreactivity
5 | QVQLVESGGGLVQAGGSLRLSCAASGSTFAGYAMGWYRQAPGKERELVAAISYSGGTTYYADSVKGRFTISRDNAKNTVYLQMNSLKPEDTAVFYCAARKKYKTPSYDMYYWGQGTQVTVSS | high polyreactivity
6 | QDQLVESGGGLVQAGGSLRLSCAASGLTFQSYAIGWYRQAPGKERELVATISNGSSTYYADSVKGRFTISRDNAKNTVYLQMNSQKPEDTAVYYCAADGYLHAGHWRTYGYYYWGHGTQVTVSS | low polyreactivity
7 | QVQLQESGGGLVQAGGSLRLSCAASGYIFPRIYMGWYRQAPGKEREFDAGISYDAITNYADSVKGRFTISLDNAKNTVYLQMNSLNPEYTAVYYCAVSYYGTPLVTYWGQGTQVTVSS | high polyreactivity
8 | QVQLVESGGGLVQAGGSLRLSCAASGRIFGRYAMGWYRPAPGKERELVAAISRSGGSTYYADSVKGRFTISRDNAKNTVYLHMNSLKPEDTAVYYCAAERWTRRHYSGNDYWGQGTQVTVSS | low polyreactivity
9 | QVQLVESGGGLVQAGGSLRLSCAASGSIFARNAMGWSRQAPGKERELVAGISRRGGSTYYADSVKGRFTISRDNAKNTVYLQMNSLKPEDTAVYYCNAVVYSPPYDYWGQGTQVTVSS | high polyreactivity
10 | QVQLVESGGGLVQAGGSLRLSCAASGRIFSYNAMGWYRPAPGKERELVASISWSGGRTYYADSVKGRFTISRDNAKNTVYLQMNSLKPEDTAVYYCAVRYRGYGYDWGQGTQVTVSS | high polyreactivity
11 | QVQLVESGGGLVQAGGSLRLSCAASGSTFNIYVMGWYRQAPGKERELVADITTSGRTYYADSVKGRFTISRDNAKNTVYVQMNSLKPEDTAVYYCADATGTYGRGGYYWGQGTQLTVSS | high polyreactivity
12 | QVQLVESGGGLVQAGGSLRLSCAASGIFTRYAMGWYRQAPGKERELVAAISRGGGSTYYADSVKGRFTISRDNAKNTVYLQMNSLKPEDTAVYYCNTYKRPRSPGPKFYYWGQGTQVTVSS | high polyreactivity
13 | QVQLVESGGGLVQAGGSLRLSCAASGSTFAYNDMGWYRQAPGKERELVADIRSGGNTNYADSVKGRFTISRDNAKNTVYLQMNSLKPEDTAFYYCNVKYFVVAGYRYVKFDYWGQGTQVTVSS | low polyreactivity
14 | QVQLVESGGGLVQAGGSLRLSCAASGSIFYINAMGWYRQAPGKERELVAAITSGGTYYADSVKGRFTISRDTAKNTVYLQMNSLKPEDTAVYYCAADREGTPLFDYWGQGTQVTVSS | low polyreactivity
15 | QVQLVESGGGLVQAGGSLRLSCAASGSTFFVNAMGWYRQAPGKERELVAAISTSGGRTYYADSVKGRFTISRDNAKNTVYLQMNSLKPEDTAVYYCAAYLRSPKGYYYWGQGTQVTVSS | high polyreactivity
16 | QVQLVESGGGLVQAGGSLRLSCAASGSIFWSYAMGWYIQAPGTERELVAAITTDGGTNYADSVKGRFTISLDNAKNTVYLLMKSLKPDDTAVYYCAGDTDPNPQIDYTLTMDYWGQGTEVTVSS | low polyreactivity
17 | QVQLVESGGGLVQAGVSLRLSCAASGFTFWRNAMGWYRQAPGKERELVAAISASGGSTYYADSVKGRFTISRDNAKNTVYLQMNSLKPEDTAVYYCAADTQGFYRYDYWGQGTQVTVSS | low polyreactivity
18 | QVQLVDSGGGLVQAGGSLRLSCAASGFTFYLNTMGWYRQAPGKERELVAAIDLSDGTTYYADSVKGRFTISRDNAKNTVYLQMNSLKPEDTAVYYCAAESYEEWTSSGLDWTDDYWGQGTQVTVSS | high polyreactivity
19 | QVHLHETGGGLVQAGGSLRLSCAASGTISVTYNMGWYRQAPGKEREFVAGNSTGATTNYADSVKGRFTISRDNANNTVYLQMNSLKPEDTAVYYCAAHIYRKDHFYYWGQGTQVTVSS | low polyreactivity
20 | QVQLVESGGGLVQAGGSLRLCCAASGSTFYYYAMGWYRQAPGKVRELVASITTGGGSTYYADSVKGRFTISRDNAKNTVYLQMNSLKPEDTAVSYCAAALAYYYWWYDYWGQGTQVTASS | low polyreactivity
21 | QVQLVESGGGLVQAGGSLRLSCAASGIFFPNAMGCYRQAPGKERELVAAISWTGGSTFYADSVKGRFTISRDNAKNTVYLQMNSLKPEDTAVYYCAAEEYYAGWTYDYWGQGTQVTVSS | high polyreactivity
22 | QVQLVESGGGLVQAGGSLRLSCAASGRTFGSYAMGWYRQAPGKERELVAAISVSGDSTFYADSVKGRFTISRDNAKNTVYLQMNSLKQEDTAVYYCAARDYVEFWGQGTQVTVSS | low polyreactivity

Row | Sequence | polyreactivity (PSR sort gate)
23 | QVQLVESGGGLVQAGGSLRLSCAASGFTIDYYTMGWYRQAPGKERELVAAISWSGGSTYYADSVKGRFTISRDNAKNTVYLQMNSLKPEDTAVYYCAAAWSYRYELYYWGQGTQVTVSS | low polyreactivity
24 | QVQLVESGGGLVQAGGSLRLSCAASGSTFAYNVMGWYRQAPGKERELVAAITISGTSTYYADSVKGRFTISRDNAKNTVYLQMNSLKPEDTAVYYCAARRDRGRVKFYYWGQGTQVTVSS | high polyreactivity
25 | QVQLVESGGGLVQAGGSLRLSCAASGSIFYHYAMGWYRQAPGKVRELFAAISGSGGSTYYADSVKGRFTISRDNAKNTVYLQMNSLKPEDSAVYYCAADTSRYHYTRYFFDSDYWGQGTQVTVSS | low polyreactivity
26 | QVQLVESGGGLVQAGGSLRLSCAASGRTFAWYAMGWYRQAPGKERELVAAISWSSDTTYYADSVKGRFTISRDNAKNTVYLQMNSLKPEDTAVYYCAAVFQGYTRKYYYWGQGTQVTVSS | high polyreactivity
27 | QVQLVESGGGLVQAGGSLRLSCAASGSTSYGYAMGWYRQAPGKERELVAAISRTDRTYYADSVKGRFTISRDNAKNTVYLQMNSLKPEDTAVYYCTAVLVGRAEYYYWGQGTQVTVSS | high polyreactivity
28 | QVQLVESGGGLVQAGGSLRLSCAASGFTFSWYAMGWSRQAPGKERELVAGISYSGTRTFYADSVKGRFTISRDNAKNTVYLQMNSLTPEDTAVYYCAAVVPGRTVLQPEYDYWGQGTQVTVSS | low polyreactivity
29 | QVQLVESVGGLDQAGVSLRLSCPASVRTLSKNSMGWYRQAPGKARELVATISSVGRTNYAVSVKGRFTISRDNAKNTVYLQMKSLKREDTAVYYCDARRFRGSYYWGLGTQVTVSS | high polyreactivity
30 | QVQLVESGGGLVQAGGSLRLSCAASGRIFNVYAMGWYRQAPGKERELVAAITYSGGSTYYADSVKVRITISRDNAKNSVYLQMIFLKPEDTAVYYCNARSSKRSSRGYDYWGQGTQVTVSS | high polyreactivity
31 | QVQLVESGGALVQAGGSLRLSCAASGFTFRSYVMGWYRQAPGKERELVAAISGSGASTYYADSVKGRFTLSRDNAKNTVYLQMNSLKPEDTAVYYCAATSPYKYWYRYNYWGHGTQVTVSS | high polyreactivity
32 | QVQLVESGGGLVQAGGSLRLSCAASGSTFFLYDKGWYRQAPGKERELVAAITLSGGSTYYADSVKGRFTISRDNAKNTVYLQMNSLNPEDTAVYYCADKRHGSEVGRGRDYWGQGTQVTVSS | high polyreactivity
33 | QVQLVESGGGLVQAGGSLRLSCAASGRTFRYYAMGWYRQAPGKERELVAAISQTGARTYYADSVKGRFTISRDNAKNTVYLQMNSLKPEDTAVYYCNAYSRSGHQSDGYDYWGQGTQVTVSS | high polyreactivity
34 | QVQLVESGGGLVQAGGSLRLSCAASGRIFQGYAMGWYRQAPGKERELVARITFRGARTYYADSVKGRFTISRDNAKITVYLHMNCLKPEDTAVYYFAKDAETYYWGSYKSLYDYWGQGTQVTVSS | low polyreactivity
35 | QVQLVESGGGLVQAGGSLRLSCAASGFIFYYYAMGWYRPAPGKERELVAAISRTGGRTYYADSVKWRFTISRDNAKKTVYLQMNSLKPEDTAVYYCAADQGNRFDYWGQGTQVTVSS | high polyreactivity
36 | QVQLVESGGGLVQAGGSLRLSCAASGRIYNPNGMGWYRQAPGKERELVAVITRSGTSTYYADSVKGRFTISRDNAKNTVYLQMNSLKPEDTAVYYCNAGKKYVDYGGPSSRYYWGQGTQVTVSS | low polyreactivity
37 | QVQLVDSGGRLVQAGGRLRLTCAASGFILSYNMGWYRQAPGKERELVATISYNDVSTYYADSVKGRFTISRDNAKNTVYLQMNSLKPEDTAVDYCNAQFPIITRRGYDYWGQGTQVNVSS | high polyreactivity
38 | QVQHVESGGGLVQAGGSLRLSCAASVIIFLWYAMGRYRQAPGKERELGAAISRSGSSTYYADSVKGRFTISRDNAKNTVYLQMNSLKPEDTAVYYCAAAYYSKRSCRFDYWGQGTQVTVSS | high polyreactivity
39 | QVQLVESGGGLVQAGGSLRLSCAASGFIFGYYTMGWYRQAPGKERELVASITRGGSTNYADSVKGRFTISRDNAKYTVYLQMNSLNPEDTAVYYCAKRYAQTYSVSRYYYWGQGTQVTVSS | high polyreactivity
40 | QVQLVESGGGLVQSGGSLRLSCDPSGSIFSHNAMGWYRQAPGKERELVAAITASSGSTYYADSVKGRFTISRDNAKNTVYLQMNSLKPEVNAVYFCARVSRKRHQQDGKYGYWGQGTQVTVSS | high polyreactivity
41 | QVQLVESGGGLVQAGGSLRLSCAASGRIFGINGMGWYRQAPGKERELVAAITWIGGRTYYADSVKGRFTISRDNAKNTVYLQMNSLKPEDTAVYYCNAVYTQRFATYRRYDYWGQGTQVTVSS | high polyreactivity
42 | QVQHVESGGGLVQAGGSLRLSCAASGSIFGDNAMGWYRQAPGKERELVAAISSGGPTYADSVKGRFTISRDNAKNTVYLQMNSLKPEDTAVYYCNATDGITPYDLTDIEFDYWGQGTQVTVSS | low polyreactivity
43 | QVQLVESGGGLVQAGGSLRLSCAASGFTINFYAMGWYRKAPGKERELVAAITASGGGSTYYADSVKGRFTISRDNAKNTVYLQMNSLKPEDTAVYYCNADYPGSFYTYDYWGQGTQVTVSS | low polyreactivity
